Results: PMC5887453 (Nucleic Acids Research, 2018)

Target: T1, Pyrococcus horikoshii elongation factor 2 (PhoEF-2), wild type (Pyrococcus horikoshii, UniProt O59521 1-732)
T1 sequence (looked up): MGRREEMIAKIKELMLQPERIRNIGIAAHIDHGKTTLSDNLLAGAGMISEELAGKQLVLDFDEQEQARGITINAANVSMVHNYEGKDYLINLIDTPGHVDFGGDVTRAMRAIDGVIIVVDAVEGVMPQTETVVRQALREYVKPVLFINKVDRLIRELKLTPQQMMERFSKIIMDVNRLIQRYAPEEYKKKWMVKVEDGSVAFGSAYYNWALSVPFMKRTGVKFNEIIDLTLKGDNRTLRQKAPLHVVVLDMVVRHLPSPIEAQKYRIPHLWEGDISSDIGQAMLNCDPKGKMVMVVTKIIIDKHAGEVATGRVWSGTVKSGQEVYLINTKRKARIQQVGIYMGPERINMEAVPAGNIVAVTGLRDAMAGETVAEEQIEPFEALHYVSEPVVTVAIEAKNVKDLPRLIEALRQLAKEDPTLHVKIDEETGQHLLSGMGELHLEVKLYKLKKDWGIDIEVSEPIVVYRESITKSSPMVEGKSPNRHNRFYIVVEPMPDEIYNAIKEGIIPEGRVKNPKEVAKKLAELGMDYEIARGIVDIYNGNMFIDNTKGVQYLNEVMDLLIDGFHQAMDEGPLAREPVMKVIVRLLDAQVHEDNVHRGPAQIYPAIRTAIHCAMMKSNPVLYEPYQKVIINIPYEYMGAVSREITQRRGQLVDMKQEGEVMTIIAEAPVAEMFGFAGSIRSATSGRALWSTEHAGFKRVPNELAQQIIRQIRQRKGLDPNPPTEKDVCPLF
Assay: crystal structure

- binding result: binds
Binder: EALAGLSALFG [P1C11, peptide of the 11 C-terminal amino acids of P. horikoshii P1 (E98-G108)]
